From US10004800 come the findings set out here.

Assay [1] has as its target B.63521 (HIV-1). Put plainly: SPR.
For assay [2], the target named is C.CH505 (HIV-1). The experiment in a line: SPR. A general note: Surface plasmon resonance follows binding to a sensor surface in real time, without labels.

The term Kd denotes the concentration at which binding is half-saturated. Low values mean tighter binding, high ones weaker binding. As to CH103, the results for the Kd in assay [1] and in assay [2] were 2.4 nM and 20 nM, respectively.
As to CH104, the values for the Kd in assay [1] and in assay [2] were 7.1 nM and 8.9 nM, respectively.
Taken in the same sequence, the figures for CH105 were 7 nM and 7.4 nM.
Taken in the same sequence, the figures for CH106 were 5.1 nM and 5.8 nM.
